Results taken from US20100189695.

Experiments:
[1] = target: T1, NFATc4
T1 sequence (Q14934 1-902, species assumed, looked up): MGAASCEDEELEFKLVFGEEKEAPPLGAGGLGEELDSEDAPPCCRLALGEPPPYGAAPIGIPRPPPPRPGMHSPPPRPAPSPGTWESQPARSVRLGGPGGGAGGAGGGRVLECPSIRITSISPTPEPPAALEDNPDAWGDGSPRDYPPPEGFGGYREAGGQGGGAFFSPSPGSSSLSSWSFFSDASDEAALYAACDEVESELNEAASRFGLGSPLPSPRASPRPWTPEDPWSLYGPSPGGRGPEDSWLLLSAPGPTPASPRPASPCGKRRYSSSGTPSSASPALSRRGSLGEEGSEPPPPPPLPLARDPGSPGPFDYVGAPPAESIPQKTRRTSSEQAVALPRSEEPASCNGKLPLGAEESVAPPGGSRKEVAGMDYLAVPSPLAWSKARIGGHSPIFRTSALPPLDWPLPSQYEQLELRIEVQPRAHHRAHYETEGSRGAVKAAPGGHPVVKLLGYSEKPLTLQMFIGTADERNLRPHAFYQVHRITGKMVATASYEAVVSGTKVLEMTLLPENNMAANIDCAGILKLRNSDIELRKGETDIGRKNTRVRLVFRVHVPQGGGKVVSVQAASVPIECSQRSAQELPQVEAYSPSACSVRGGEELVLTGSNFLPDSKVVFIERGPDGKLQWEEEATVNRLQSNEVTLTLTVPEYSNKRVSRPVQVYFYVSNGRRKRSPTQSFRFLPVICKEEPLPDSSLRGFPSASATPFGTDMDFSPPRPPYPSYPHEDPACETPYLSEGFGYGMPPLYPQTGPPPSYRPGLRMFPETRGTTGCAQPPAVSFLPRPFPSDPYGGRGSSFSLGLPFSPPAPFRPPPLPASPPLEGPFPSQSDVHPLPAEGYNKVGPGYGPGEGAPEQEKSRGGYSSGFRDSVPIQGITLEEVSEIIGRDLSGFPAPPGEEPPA

[2] = target: Tau protein (in bone marrow derived macrophages), P10637
[3] = target: Rac1 (murine BMDM cells), P63001

Sequence of Tau protein (in bone marrow derived macrophages), P10637 (P10637 whole entry, looked up): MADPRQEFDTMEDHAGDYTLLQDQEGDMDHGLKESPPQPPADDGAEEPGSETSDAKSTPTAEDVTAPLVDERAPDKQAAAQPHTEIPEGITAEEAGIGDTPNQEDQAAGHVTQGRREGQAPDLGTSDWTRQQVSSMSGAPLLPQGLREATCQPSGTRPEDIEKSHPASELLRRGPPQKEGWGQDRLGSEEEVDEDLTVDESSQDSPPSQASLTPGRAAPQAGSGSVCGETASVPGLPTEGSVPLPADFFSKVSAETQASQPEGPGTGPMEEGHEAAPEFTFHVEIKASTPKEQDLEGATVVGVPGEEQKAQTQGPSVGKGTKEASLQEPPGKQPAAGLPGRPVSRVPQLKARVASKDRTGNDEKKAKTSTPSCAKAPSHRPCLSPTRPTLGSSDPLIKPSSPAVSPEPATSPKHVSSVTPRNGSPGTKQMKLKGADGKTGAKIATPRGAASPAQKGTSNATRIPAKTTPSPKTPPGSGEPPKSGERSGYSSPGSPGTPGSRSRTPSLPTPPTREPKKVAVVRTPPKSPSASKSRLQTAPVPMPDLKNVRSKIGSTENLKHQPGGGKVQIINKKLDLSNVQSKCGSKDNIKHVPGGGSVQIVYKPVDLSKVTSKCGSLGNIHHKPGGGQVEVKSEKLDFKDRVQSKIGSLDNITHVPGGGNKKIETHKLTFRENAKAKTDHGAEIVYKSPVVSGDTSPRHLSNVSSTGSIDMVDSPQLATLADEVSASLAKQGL

B1: murine IRAK-1 (endogenous, wild type BMDM cells) (protein)
chain: MAGGPGPGEPVVPGAQHFLYEVPPWVMCRFYKVMDALEPADWCQFAALIVRDQTELRLCERSEQRTASVLWPWINRNARVADLVHILTHLQLLRARDIITAWHPPAPVVPPSTAAPRPSSISAGSEAGDWSPRKLQSSASTFLSPAFPGSQTHSESELLQVPLPVSLGPPLPSSAPSSTKSSPESPVSGLQRAHPSPFCWPFCEISQGTCNFSEELRIGEGGFGCVYRAVMRNTTYAVKRLKEEADLEWTMVKQSFLTEVEQLSRFRHPNIVDFAGYCAESGLYCLVYGFLPNGSLEDQLHLQTQACSPLSWPQRLDILLGTARAIQFLHQDSPSLIHGDIKSSNVLLDERLMPKLGDFGLARFSRFAGAKASQSSTVARTSTVRGTLAYLPEEYIKTGRLAVDTDTFSFGVVILETLAGQRAVRTQGAKTKYLKDLIEDEAEEAGVTLKSTQPTLWVGVATDAWAAPIAAQIYKKHLDSRPGPCPPQLGLALAQLACCCMHRRAKKRPPMTQVYKRLEGLQAGPPWELEVAGHGSPSPQENSYMSTTGSAQSGDEPWQPLVVTTRAPAQAAQQLQRSPNQPVESDESVPGLSATLHSWHLTPGSHPSPASFREASCTQGGTTRESSVRSSPGFQPTTMEGSPTGSSSLLSSEPPQIIINPARQKMVQKLALYEEGVLDSLQLLSSGFFPGLDLEPEKSQGPEESDEFQS
[1]
  phosphorylated NFATc4 (p-NFATc4) by Western blot: p-NFATc4 was found in the wild type cells (Panel B, lanes 1-3) whereas significantly less was found in the IRAK-1 deficient cells
[2]
  phosphorylated Tau (PHF-Tau) by Western blot after BLP (Pam3CSK4) treatment: stimulation of wild type cells led to increased Tau phosphorylation. In contrast, Tau phosphorylation is ablated in IRAK-1 deficient cells
[3]
  Rac1 activity (PBD pull down assay) after LPS treatment for 5 min: relative Rac1 activity is significantly higher in LPS-induced wild type macrophages and not in IRAK-1 deficient macrophages
